T1: Myo5 SH3 (MYO5_YEAST), Q04439
T1 chain: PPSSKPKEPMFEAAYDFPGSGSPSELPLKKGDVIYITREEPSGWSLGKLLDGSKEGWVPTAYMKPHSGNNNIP

T2: Boi1 SH3 (BOI1_YEAST), P38041
T2 chain: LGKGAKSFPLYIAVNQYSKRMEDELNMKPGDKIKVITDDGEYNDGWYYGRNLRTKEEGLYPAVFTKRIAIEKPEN

T3: Yfr024 SH3 (LSB3_YEAST), P43603
T3 chain: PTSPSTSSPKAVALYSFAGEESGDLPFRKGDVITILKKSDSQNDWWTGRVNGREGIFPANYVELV

T4: Rvs167 SH3 (RV167_YEAST), P39743
T4 chain: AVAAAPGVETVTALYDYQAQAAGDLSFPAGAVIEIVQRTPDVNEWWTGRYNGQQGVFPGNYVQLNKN

T5: Boi2 SH3 (BOI2_YEAST), P39969
T5 chain: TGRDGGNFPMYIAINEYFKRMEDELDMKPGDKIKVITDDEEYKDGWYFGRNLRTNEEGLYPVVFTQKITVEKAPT

T6: Yhr016c SH3 (YSC84_YEAST), P32793
T6 chain: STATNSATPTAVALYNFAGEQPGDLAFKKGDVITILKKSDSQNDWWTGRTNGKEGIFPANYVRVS


How the values were obtained:
Test in all cases: SPOT array
[1] = biological target: T1, Myo5 SH3 (MYO5_YEAST), Q04439
[2] = biological target: T2, Boi1 SH3 (BOI1_YEAST), P38041
[3] = biological target: T3, Yfr024 SH3 (LSB3_YEAST), P43603
[4] = biological target: T4, Rvs167 SH3 (RV167_YEAST), P39743
[5] = biological target: T5, Boi2 SH3 (BOI2_YEAST), P39969
[6] = biological target: T6, Yhr016c SH3 (YSC84_YEAST), P32793
[7] = biological target: Sho1 SH3 (SHO1_YEAST), P40073
Chain of Sho1 SH3 (SHO1_YEAST), P40073 (P40073 295-366): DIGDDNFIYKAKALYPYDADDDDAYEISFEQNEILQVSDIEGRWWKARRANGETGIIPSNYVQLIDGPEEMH

| Binder | normalised SPOT signal, Boehringer light units (BLU); mean over the file's lines of this peptide [1] | normalised SPOT signal, Boehringer light units (BLU); mean over the file's lines of this peptide [2] | normalised SPOT signal, Boehringer light units (BLU); mean over the file's lines of this peptide [3] | normalised SPOT signal, Boehringer light units (BLU); mean over the file's lines of this peptide [4] | normalised SPOT signal, Boehringer light units (BLU); mean over the file's lines of this peptide [5] | normalised SPOT signal, Boehringer light units (BLU); mean over the file's lines of this peptide [6] | normalised SPOT signal, Boehringer light units (BLU); mean over the file's lines of this peptide [7] |
| --- | --- | --- | --- | --- | --- | --- | --- |
| RGWQRFLPTGPIAH [YGR255C 239-252] | 802 | 95.9 | 2080 | 562 | 120 | 597 | 479 |
| RHSKKPAPPPPGMQ [YMR109W 1006-1019] | 1940 | 341 | 304 | 56.3 | 22.2 | 17.7 | 175 |
| RIRDKSKPSSPTAT [YDR474C 379-392] | 547 | 1510 | 592 | 55.6 | 3.1 | 46.3 | 169 |
| RKSDKNAPSVPQVD [YJL117W 12-25] | 395 | 1390 | 13.7 | 40.6 | -0 | 50.6 | 89.7 |
| RLIKRLKPPAPKEP [YML127W 362-375] | 403 | 375 | 296 | 133 | 40.3 | 65.9 | 166 |
| RLLFRSLPPHPASL [YCR022C 77-90] | 746 | 465 | 3510 | 587 | 67.2 | 1600 | 571 |
| RLLSKYRPSSPIIL [YOR347C 411-424] | 337 | 718 | 519 | 1120 | 50.1 | 245 | 41.8 |
| RLPSKTDPLDPHIK [YML050W 46-59] | 129 | 326 | 66.3 | 110 | 28 | 29.3 | 47.9 |
| RLVNKLLPPHPFAD [YGL143C 139-152] | 289 | 440 | 187 | 144 | 28.5 | 24.8 | 20300 |
| RLVSKYRPNSPIIL [YAL038W 409-422] | 286 | 246 | 565 | 233 | 74 | 108 | 42.5 |
| RMQQKNSPAFPTHS [YGR056W 183-196] | 1280 | 4830 | 4550 | 1150 | 227 | 1510 | 1220 |
| RPVYRLKPNAPFQY [YLR072W 370-383] | 210 | 72 | 583 | 148 | 78.2 | 129 | 60.1 |
| RRHNRQHPPYPHSG [YNL165W 14-27] | 1290 | 299 | 667 | 51.8 | 16 | 43.4 | 65.3 |
